Target: NFL-c-Myc T581 (firefly) [luciferase: P08659]
Assay: cell-based or functional assay

Sequence of NFL-c-Myc T581 (firefly) [luciferase: P08659] (P08659 other isoform, or with tags, fused parts or gaps): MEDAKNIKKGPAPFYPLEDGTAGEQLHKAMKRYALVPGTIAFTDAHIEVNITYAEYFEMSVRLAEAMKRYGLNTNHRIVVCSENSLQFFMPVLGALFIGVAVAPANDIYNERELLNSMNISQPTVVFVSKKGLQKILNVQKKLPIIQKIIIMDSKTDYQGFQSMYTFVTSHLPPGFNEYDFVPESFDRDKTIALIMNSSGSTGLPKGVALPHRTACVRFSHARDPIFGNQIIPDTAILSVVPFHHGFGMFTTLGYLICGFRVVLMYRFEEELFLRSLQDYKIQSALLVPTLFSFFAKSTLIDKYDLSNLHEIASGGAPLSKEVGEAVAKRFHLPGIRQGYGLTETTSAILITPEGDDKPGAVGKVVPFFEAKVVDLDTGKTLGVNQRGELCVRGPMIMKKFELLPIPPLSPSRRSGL

B1: GSK 35-433-CFL, P49841 35-420 (protein, not shown: large carriers)
chain: SKVTTVVATPGQGPDRPQEVSYTDTKVIGNGSFGVVYQAKLCDSGELVAIKKVLQDKRFKNRELQIMRKLDHCNIVRLRYFFYSSGEKKDEVYLNLVLDYVPETVYRVARHYSRAKQTLPVIYVKLYMYQLFRSLAYIHSFGICHRDIKPQNLLLDPDTAVLKLCDFGSAKQLVRGEPNVSYICSRYYRAPELIFGATDYTSSIDVWSAGCVLAELLLGQPIFPGDSGVDQLVEIIKVLGTPTREQIREMNPNYTEFKFPQIKAHPWTKDSSGTGHFTSGVRVFRPRTPPEAIALCSRLLEYTPTARLTPLEACAHSFFDELRDPNVKLPNGRDTPALFNFTTQELSSNPPLATILIPPHARIQAAASTPTNATAASDANTGDRGQTNNAASASASNST
modifications: here or on the partner: phosphorylation partially abolished (T58 cannot be phosphorylated)
- complemented FL activity of SKBR3 xenografts in nude mice, normalized to hRL activity, compared with pcDNA3.1(+) vector: 4.7 fold

Source: patent publication US20120270914A1, “SPLIT-LUCIFERASE C-MYC SENSOR AND USES THEREOF” (THE BOARD OF TRUSTEES OF THE LELAND STANFORD JUNIOR …, priority 2011, published 2012)
